Assay results published in patent publication US20080220446A1, “Method for Detecting and/or Removing Protein and/or Peptide Comprising a Cross-Beta Structure From an Aqueous Solution Comprising a Protein” (priority 2005, published 2008).

Assays:
tPA = tPA (Homo sapiens, UniProt P00750); assay: Plasminogen-activation assay (tPA activation, S-2251); type: biochemical
Experimental: Plasmin (Pls) activity was assayed as described^16. Peptides and proteins that were tested for their stimulatory ability were regularly used at 100 μg ml^−1. […] Chromogenic substrate S-2251 (Chromogenix, Instrumentation Laboratory SpA, Milano, Italy) was used to measure Pls activity. Conversion of zymogen factor XII (#233490, Calbiochem, EMD Biosciences, Inc., San Diego, Calif.) to proteolytically active factor XII (factor XIIa) was assayed by measurement of the conversion of chromogenic substrate Chromozym-PK (Roche Diagnostics, Almere, The Netherlands) by kallikrein. Chromozym-PK was used at a concentration of 0.3 mM. Factor XII, human plasma prekallikrein (#529583, Calbiochem) and human plasma cofactor high-molecular weight kininogen (#422686, Calbiochem) were used at concentrations of 1 μg ml^−1. […] Assays were performed using microtiter plates (Costar, Cambridge, Mass., USA). Peptides and proteins were tested for their ability to activate factor XII. 150 μg ml^−1 kaolin, an established activator of factor XII was used as positive control and solvent (H2O) as negative control. The conversion of Chromozym-PK was recorded kinetically at 37° C. for at least 60 minutes. Assays were done in duplicate.
(§1) Formulated protein therapeutics were obtained from the local hospital pharmacy and were used as supplied by the manufacturers. […] Lyophilized therapeutics were dissolved according to the manufacturers recommendations. GH, zinc-insulin, Cealb and gelatin were stored at −20, 4, room temperature, 37 and 65° C. Other protein therapeutics were only kept at 4° C., and assayed for the presence of cross-β structure at shown time points. Enhancement in fluorescence of ThT and Congo red was measured with all formulated protein therapeutics. For this purpose, proteins were diluted to the indicated concentrations. […] Zinc-insulin was diluted tenfold in the activation assay, GH was diluted to a final concentration of 500 μg ml^−1. Activation of factor XII and prekallikrein by the therapeutics was tested in the chromogenic factor XII assay (see above). […] After coating, plates were blocked with Blocking Reagent (Roche Diagnostics, Almere, The Netherlands).
(§2) To prepare structurally altered ovalbumin (OVA) with amyloid cross-β structures, purified OVA (Sigma, A-7641, lot 071k7094) was heated to 85° C. One mg ml^−1 OVA in 67 mM NaPi buffer pH 7.0, 100 mM NaCl, was heated for two cycles in PCR cups in a PTC-200 thermal cycler (MJ Research, Inc., Waltham, Mass., USA). In each cycle, OVA was heated from 30 to 85° C. at a rate of 5° C./min. Native OVA (nOVA) and heat-denatured OVA (dOVA) were tested in the ThT fluorescence assay and in the Plg-activation assay. In the fluorescence assay and in the Plg-activation assay, 25 and 100 μg ml^−1 nOVA and dOVA were tested, respectively. TEM images of nOVA and dOVA were taken to check for the presence of large aggregates.
MSA (#126674, Calbiochem) was dissolved in 8 M urea, 100 mM Tris-HCl pH 8.2, at 10 mg ml^−1 final concentration. Dithiothreitol (DTT) was added to a final concentration of 10 mM. Air was replaced by N2 and the solution was incubated for 2 h at room temperature. Then, the solution was transferred to ice and iodoacetamide was added from a 1 M stock to a final concentration of 20 mM. […] Alkyl-MSA was dialyzed against H2O before use. […] In the ThT-fluorescence assay 25 μg ml^−1 nMSA and alkyl-MSA were tested, and in the Plg-activation assay 100 μg ml^−1 was tested. The presence of aggregates or fibrils was analyzed using TEM.
Lyophilized sterile glucagon was dissolved at 1 mg ml^−1 in H2O with 10 mM HCl. The solution was subsequently kept at 37° C. for 24 h, at 4° C. for 14 days and again at 37° C. for 9 days. […] TEM analysis was performed to assess the presence of large multimeric structures.

[1] = Thioflavin T fluorescence of protein solutions; type: physicochemical
Experimental: (§3) Fluorescence of ThT—protein/peptide adducts was measured as follows. […] Fluorescence was measured at 485 nm upon excitation at 435 nm. Background signals from buffer, buffer with ThT and protein/peptide solution without ThT were subtracted from corresponding measurements with protein solution incubated with ThT. Regularly, fluorescence of Aβ was used as a positive control, and fluorescence of FP10, a non-amyloid fibrin fragment^16, was used as a negative control. Fluorescence was measured in triplicate on a Hitachi F-4500 fluorescence spectrophotometer (Ltd., Tokyo, Japan).
as §1
ThT fluorescence of β2GPI was measured as follows. […] CL vesicles were prepared according to an established procedure. Briefly, CL was dried under a stream of nitrogen. The lipids were resuspended to a concentration of 10 mg ml^−1 in 25 mM Tris-HCl, pH 7.3, 150 mM NaCl by vigorous agitation, using a vortex. In the ThT fluorescence assay, fluorescence of β2GPI in buffer, of CL or DXS500k in buffer, of buffer and ThT alone, and of β2GPI-CL adducts and β2GPI-DXS500k adducts, with or without ThT, was recorded as described above (section ThT fluorescence). In addition, TEM images were recorded with CL, β2GPI from human plasma, with or without CL, and with recombinant β2GPI, as described^5.
as §2
MSA (#126674, Calbiochem) was dissolved in 8 M urea, 100 mM Tris-HCl pH 8.2, at 10 mg ml^−1 final concentration. Dithiothreitol (DTT) was added to a final concentration of 10 mM. Air was replaced by N2 and the solution was incubated for 2 h at room temperature. Then, the solution was transferred to ice and iodoacetamide was added from a 1 M stock to a final concentration of 20 mM. […] In the ThT-fluorescence assay 25 μg ml^−1 nMSA and alkyl-MSA were tested, and in the Plg-activation assay 100 μg ml^−1 was tested. The presence of aggregates or fibrils was analyzed using TEM. […]

[2] = ThT fluorescence enhancement by biopharmaceuticals; type: physicochemical; conditions: +/− SD; five μL of protein therapeutic
Experimental: as §3
β2-GPI was reduced and alkylated as follows. Sixhundredforty μl of β2-GPI stock was mixed with 640 μl of 8 M Urea (cooled solution) in 0.1 M Tris pH-8.2. The solution was degassed with N2 gas for approximately 6 minutes. From a 1 M DTT stock 12.8 μl was added to the solution, mixed and incubated for 3 hours at room temperature. A 1 M Iodoacetamide (Sigma; I-6125) was prepared, of which 25.6 μl was added to the β2-GPI reaction mixture. The solution was subsequently dialysed against PBS. […] Signals obtained with alkyl-β2gpi are compared with those obtained with native β2gpi starting material and with positive control acid/heat denatured amyloid-like misfolded γ-globulins.
Protein therapeutics were obtained from the local hospital pharmacy and analyzed within the expiry limits as stated by the manufacturers.
Fluorescence of Thioflavin T (ThT; Sigma T-3516, St. Louis, Mo., USA) and Congo red (CR; Aldrich Chemical Company Inc., Milwaukee, Wis., USA) was measured on a Hitachi F-4500 spectrophotometer at an excitation wavelength of 435 nm and emission wavelength of 485 nm for ThT and an excitation wavelength of 550 nm and emission wavelength of 595 nm for Congo red. […] Fluorescence was measured in triplicate. Background fluorescence of both protein in buffer and dye-solution were subtracted from the total fluorescence signal. Five μg/mL fibrillar amyloid-β(1-40) E22Q (Peptide Synthesis Facility of the Dutch Cancer Institute NKI, Amsterdam, The Netherlands) was used as a positive control in all fluorescence assays.

tPA, sequence (P00750 36-562): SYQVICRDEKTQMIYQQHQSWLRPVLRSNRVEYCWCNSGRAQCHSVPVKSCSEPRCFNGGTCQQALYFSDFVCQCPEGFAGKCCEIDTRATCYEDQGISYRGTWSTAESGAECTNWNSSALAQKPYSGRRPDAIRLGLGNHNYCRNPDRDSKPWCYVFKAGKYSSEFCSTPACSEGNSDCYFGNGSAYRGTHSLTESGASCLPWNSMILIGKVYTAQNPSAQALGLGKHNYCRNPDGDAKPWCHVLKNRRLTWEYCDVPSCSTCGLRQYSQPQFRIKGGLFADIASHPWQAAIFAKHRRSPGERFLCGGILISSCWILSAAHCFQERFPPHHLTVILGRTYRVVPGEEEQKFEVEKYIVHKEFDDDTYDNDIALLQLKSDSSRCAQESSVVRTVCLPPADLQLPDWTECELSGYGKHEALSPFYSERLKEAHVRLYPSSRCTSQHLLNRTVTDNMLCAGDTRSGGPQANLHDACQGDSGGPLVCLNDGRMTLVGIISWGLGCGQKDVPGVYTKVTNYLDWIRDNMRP

| Substance | Pls activity (tPA activating properties) (tPA; after storage at 65° C.) | enhancement of ThT fluorescence ([1]; after storage at 65° C.) | Fluorescence ThT [2] | tPA activation (tPA; protein solutions stored at 4° C.) | enhancement of ThT fluorescence ([1]; stored at 4° C.) |
| --- | --- | --- | --- | --- | --- |
| Abciximab: abciximab, an inhibitor of blood platelet aggregation (ReoPro, Centocor) | induced Pls activity | enhanced ThT fluorescence | 8 +/− 8 a.u. | – | – |
| Somatropin: human growth hormone (Genotropin, Pharmacia) | – | – | 1317 +/− 10 a.u. | induced tPA activation | enhance fluorescence of ThT |
